From patent publication US20250319180A1

Target: human LY6H expressed on 293T cells (plasmid BBP491, M1-P140 plus Myc-DDK) (human) (UniProt O94772)
Assay: on-cell affinity by flow cytometry: unconjugated 12G7 (0.05-100 nM) competes with 1 nM PE-conjugated 12G7 on 293T cells expressing human LY6H; table row 293T-huLY6H

Kd: 9.9 nM
B1: 12G7 (antibody, V domains shown)
VH: QVQLQQWGAGLLKPSETLSLTCAVYGGSFSGYYWSWIRQPPGKGLEWIGEINHSGSTYYNPSLKSRVTMSVDTSKNQFSLKLSSVTAADTAVYYCAKRWELGAFDIWGQGTMVTVSS
VL: DIQMTQSPSSLSASVGDRVTITCRASQGISNYLAWYQQKPGKVPKLLIYAASTLQSGVPSRFSGSGSGTDFTLTISSLQPEDVATYYCQKYNSAPRTFGQGTKLEIK
